{"source": "paper PMC3926839", "about": "“Evaluation of Zinc (II) chelators for inhibiting p53-mediated apoptosis”", "molecular_target": "FLAG-p53 (UniProt P04637 1-393)", "sequence (P04637 whole entry)": "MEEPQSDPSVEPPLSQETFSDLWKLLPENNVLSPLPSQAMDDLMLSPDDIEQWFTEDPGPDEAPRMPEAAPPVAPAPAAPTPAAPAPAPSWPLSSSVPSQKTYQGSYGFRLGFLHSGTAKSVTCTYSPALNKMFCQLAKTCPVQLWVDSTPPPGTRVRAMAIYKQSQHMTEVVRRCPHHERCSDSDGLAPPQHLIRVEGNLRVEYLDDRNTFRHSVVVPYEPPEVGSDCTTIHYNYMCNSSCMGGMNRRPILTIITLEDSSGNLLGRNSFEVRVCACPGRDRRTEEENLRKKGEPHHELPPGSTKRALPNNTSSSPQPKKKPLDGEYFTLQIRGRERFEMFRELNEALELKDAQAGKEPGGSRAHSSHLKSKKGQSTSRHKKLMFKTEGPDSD", "experiment": "EMSA; BPA (Zn(II) chelator) preincubated; no inhibition; FLAG-p53 12.5 nM; 10 mM Tris-HCl pH 7.4, 2.5 mM DTT, 0.05% NP-40; 10 min preincubation with chelator at 37 °C, then 3 h with probe at 37 °C; electrophoresis at", "details": "protein: recombinant; tags: FLAG; chain copies: 4; label: FITC; blunt (only the sense strand is printed; it is self-complementary)"}
{"binder": "p53 consensus probe (dsDNA) DNA 1: GGACATGCCCGGGCATGTCC DNA 2: GGACATGCCCGGGCATGTCC", "values": [{"measurement": "binding result", "result": "binds"}]}
